# Source: patent US20220370565A1 (SHANGHAI INSTITUTE OF BIOLOGICAL PRODCCTS CO., LTD., priority 2019, published 2022)
# B1: PEGylated (PEG) interferon: recombinant human interferon α1b modified with a single PEG of about 20,000 Daltons; lyophilized powder injection, Shanghai Institute of Biological Products (protein, UniProt P01562 24-189, looked up)
# Interferon alpha-1/13: CDLPETHSLDNRRTLMLLAQMSRISPSSCLMDRHDFGFPQEEFDGNQFQKAPAISVLHELIQQIFNLFTTKDSSAAWDEDLLDKFCTELYQQLNDLEACVMQEERVGETPLMNADSILAVKKYFRRITLYLTEKKYSPCAWEVVRAEIMRSLSLSTNLQERLRRKE
# modifications: single 20 kDa PEG
# notes: recombinant human interferon α1b modified with a single PEG of about 20,000 Daltons; lyophilized powder injection, Shanghai Institute of Biological Products
# B2: ordinary interferon α1b: unmodified recombinant human interferon α1b, 166 amino acids, SEQ ID No.: 1 (protein, UniProt P01562 24-189, looked up)
# Interferon alpha-1/13: B1 Interferon alpha-1/13
# What was measured:
# [1] = tested on: human liver cancer Huh-7; assay: subcutaneous transplanted tumors of human liver cancer Huh-7 in nude mice; type: in vivo; settings: for % T/C D 17 / Mean tumor volume D 17 SEM / Tumor inhibition rate % D 17 / Mean tumor volume D 0 SEM: D 0, 3, 7, 10, 14; for Mean tumor volume D 0 SEM: baseline at grouping
# Experimental: (§1) The indicators of tumor inhibition experiments in mice were to investigate the effect of drugs on tumor growth, and the specific indicators were T/C % or the rate of tumor growth inhibition TGI (%).
# (§2) The diameter of the tumor was measured with a vernier caliper twice a week, and the formula for calculating the tumor volume (V) was: V=½xaxb^2, wherein a and b represented the length and width, respectively.
# (§3) T/C(%)=(T−T0)/(C−C0)×100,
# (§4) If a tumor was smaller than the initial volume, i.e., T<T0 or C<C0, it was defined as partial regression (PR) of the tumor; if a tumor disappeared completely, it was defined as complete regression (CR) of the tumor.
# (§5) At the end of the experiment (e.g., D21), reaching the experimental endpoint, or the tumor volume reached 1,500 mm^3, the animals were sacrificed after CO2 anesthesia, and then the tumors were dissected and photographed.
# Nude mice were subcutaneously inoculated with 6×10^6 human liver cancer Huh-7 cells. After the tumor grew to 100-150 mm^3, the animals were grouped according to tumor volume (D0). Mice were administered subcutaneously (SC) or intravenously (IV), twice a week (BIW); the administration volume was 10 mL/kg; the solvent group was administered with the same volume of “solvent” (normal saline); specific dosage and administration regimen were shown in Table 2. The tumor volumes were measured twice a week, the mice were weighed, and the data were recorded.
# (§6) Two-tailed Student's t-test was used to compare tumor volumes between the two groups, and P<0.05 was defined as a statistically significant difference.
# [2] = tested on: human gastric cancer NCI-N87; assay: subcutaneous transplanted tumors of human gastric cancer NCI-N87 in nude mice; type: in vivo; settings: D 0, 3, 7, 10, 14, 17; for Mean tumor volume D 0 SEM: baseline at grouping
# Experimental: as §1, §2, §3, §4, §5
# Nude mice were subcutaneously (SC) inoculated with 6×10^6 human gastric cancer NCI-N87 cells. After the tumor grew to 100-150 mm^3, the animals were grouped according to tumor volume (D0). Mice were administered subcutaneously (SC) or intravenously (IV), twice a week (BIW); the administration volume was 10 mL/kg; the solvent group was administered with the same volume of “solvent” (normal saline); specific dosage and administration regimen were shown in Table 1. The tumor volumes were measured twice a week, the mice were weighed, and the data were recorded.
# as §6
# [3] = tested on: AGS; assay: SRB method, proliferation of tumor cells in vitro, AGS; type: cell-based; settings: AGS (Gastric cancer), 120 hours of drug action
# Experimental: (§7) Sulfonyl rhodamine B protein staining method (SRB method) was used to evaluate the effects of using PEG-interferon alone or in combination with other drugs on the proliferation of tumor cells in vitro.
# (§8) A certain number of cells in logarithmic growth phase were seeded in 96-well culture plates. After 24 hours of adherent growth, different concentrations (final concentrations of 1, 3, 10, 30, 100, 300, 1,000, 3,000, 10,000 nM) of drugs were added. After 120 hours of drug action, cells were fixed with trichloroacetic acid. Then stained with SRB solution; finally, Tris solution was added to dissolve SRB, and OD value was measured at a wavelength of 510 nm by a microplate reader.
# [4] = tested on: NCI-H292; assay: SRB method, proliferation of tumor cells in vitro, NCI-H292; type: cell-based; settings: NCI-H292 (Lung cancer), 120 hours of drug action
# Experimental: as §7, §8
# [5] = tested on: HGC27; assay: SRB method, proliferation of tumor cells in vitro, HGC27; type: cell-based; settings: HGC27 (Gastric cancer), 120 hours of drug action
# Experimental: as §7, §8
# [6] = tested on: human breast cancer BT-474; assay: subcutaneous transplanted tumors of human breast cancer BT-474 in nude mice; type: in vivo; settings: for % T/C D 20 / Mean tumor volume D 20 SEM / Tumor inhibition rate % D 20 / Mean tumor volume D 0 SEM: D 0, 3, 7, 10, 14, 17; for Mean tumor volume D 0 SEM: baseline at grouping
# Experimental: as §1, §2, §3, §4, §5
# Nude mice were subcutaneously inoculated with 1×10^7 human breast cancer BT-474 cells. After the tumor grew to 100-150 mm^3, the animals were grouped according to tumor volume (D0). Mice were administered subcutaneously (SC) or intravenously (IV), twice a week (BIW); the administration volume was 10 mL/kg; the solvent group was administered with the same volume of “solvent” (normal saline); specific dosage and administration regimen were shown in Table 3. The tumor volumes were measured twice a week, the mice were weighed, and the data were recorded.
# as §6
# [7] = half-life in cynomolgus monkeys; type: in vivo
# [8] = tested on: A549; assay: SRB method, proliferation of tumor cells in vitro, A549; type: cell-based; settings: A549 (Lung cancer), 120 hours of drug action
# Experimental: as §7, §8
# [9] = tested on: Hep3B; assay: SRB method, proliferation of tumor cells in vitro, Hep3B; type: cell-based; settings: Hep3B (Liver cancer), 120 hours of drug action
# Experimental: as §7, §8
# [10] = tested on: Huh-7; assay: SRB method, proliferation of tumor cells in vitro, Huh-7; type: cell-based, human; settings: Huh-7 (Liver cancer), 120 hours of drug action
# Experimental: as §7, §8
# [11] = tested on: MCF-7; assay: SRB method, proliferation of tumor cells in vitro, MCF-7; type: cell-based; settings: MCF-7 (Breast cancer), 120 hours of drug action
# Experimental: as §7, §8
# [12] = tested on: BT474; assay: SRB method, proliferation of tumor cells in vitro, BT474; type: cell-based, human; settings: BT474 (Breast cancer), 120 hours of drug action
# Experimental: as §7, §8
# Breast cancer cells BT474 were used, and the corresponding inhibition rate (%) was calculated.
# [13] = half-life in rats; type: in vivo
# [14] = tested on: N87; assay: SRB method, proliferation of tumor cells in vitro, N87; type: cell-based, human; settings: N87 (Gastric cancer), 120 hours of drug action
# Experimental: as §7, §8
# [15] = tested on: HCC1806; assay: SRB method, proliferation of tumor cells in vitro, HCC1806; type: cell-based; settings: HCC1806 (Breast cancer), 120 hours of drug action
# Experimental: as §7, §8
# [16] = tested on: HepG2; assay: SRB method, proliferation of tumor cells in vitro, HepG2; type: cell-based; settings: HepG2 (Liver cancer), 120 hours of drug action
# Experimental: as §7, §8
# [17] = tested on: metastatic renal cancer and multiple myeloma; settings: high-dose (500 μg/day) injection, patients; cited from earlier work
# [18] = tested on: hairy cell leukemia; settings: hairy cell leukemia patients; cited from earlier work
# [19] = specific activity in vitro
# [20] = Avastin 10 mg/kg IV (first dose doubled)
# [21] = PEGylated (PEG) interferon 0.1 mg/kg SC
# [22] = PEGylated (PEG) interferon 1 mg/kg SC
# [23] = PEGylated (PEG) interferon 10 mg/kg SC, 2 times a week, 6 times in total, D20
# [24] = PEGylated (PEG) interferon 10 mg/kg SC
molecule,measurement,setting,value
"Avastin: Bevacizumab injection, commercially available monoclonal antibody purchased from Roche Pharmaceuticals [reference compound]",% T/C D 17,[1]; [20],60%
same,Mean tumor volume D 17 SEM,[1]; [20],1791.6 ± 105.7 mm^3
same,Tumor inhibition rate % D 17,[1]; [20],40%
same,Mean tumor volume D 0 SEM,[1]; [20],122.7 ± 1.8 mm^3
same,% T/C D 21,[2]; [20],51%
same,Mean tumor volume D 21 SEM,[2]; [20],561.1 ± 53.4 mm^3
same,Tumor inhibition rate % D 21,[2]; [20],49%
same,Mean tumor volume D 0 SEM,[2]; [20],115.7 ± 2.7 mm^3
B1,Inhibition rate (%)@100 μg/mL,[3],44.0%
same,Inhibition rate (%)@100 μg/mL,[4],41.5%
same,Inhibition rate (%)@100 μg/mL,[5],52.3%
same,% T/C D 20,[6]; [21],34%
same,Mean tumor volume D 20 SEM,[6]; [21],422.2 ± 97.0 mm^3
same,Tumor inhibition rate % D 20,[6]; [21],66%
same,Mean tumor volume D 0 SEM,[6]; [21],91.2 ± 1.3 mm^3
same,tumors regressed partially (PR),"[6]; PEGylated (PEG) interferon 1 mg/kg SC, 2 times a week, 6 times in total, D20",3/6
same,% T/C D 20,[6]; [22],2%
same,Mean tumor volume D 20 SEM,[6]; [22],115.7 ± 26.1 mm^3
same,Tumor inhibition rate % D 20,[6]; [22],98%
same,Mean tumor volume D 0 SEM,[6]; [22],94.1 ± 4.3 mm^3
same,tumors regressed completely (CR),[6]; [23],2/6
same,tumors regressed partially (PR),[6]; [23],4/6
same,tumors regressed partially (PR),"[6]; PEGylated (PEG) interferon 10 mg/kg SC, 6 times in total, end of the experiment (D60)",4/6
same,% T/C D 20,[6]; [24],−56%
same,Mean tumor volume D 20 SEM,[6]; [24],41.4 ± 15.7 mm^3
same,Tumor inhibition rate % D 20,[6]; [24],156%
same,Mean tumor volume D 0 SEM,[6]; [24],94.8 ± 4.2 mm^3
same,half-life,[7],22.03 ± 3.32 h
same,Inhibition rate (%)@100 μg/mL,[8],33.7%
same,Inhibition rate (%)@100 μg/mL,[9],58.4%
same,Inhibition rate (%)@100 μg/mL,[10],29.3%
same,Inhibition rate (%)@100 μg/mL,[11],24.2%
same,Inhibition rate (%)@100 μg/mL,[12],19.6%
same,% T/C D 17,[1]; [21],110%
same,Mean tumor volume D 17 SEM,[1]; [21],3188.0 ± 282.5 mm^3
same,Tumor inhibition rate % D 17,[1]; [21],−10%
same,Mean tumor volume D 0 SEM,[1]; [21],117.7 ± 2.0 mm^3
same,% T/C D 17,[1]; [22],107%
same,Mean tumor volume D 17 SEM,[1]; [22],3110.6 ± 438.0 mm^3
same,Tumor inhibition rate % D 17,[1]; [22],−7%
same,Mean tumor volume D 0 SEM,[1]; [22],119.8 ± 2.6 mm^3
same,% T/C D 17,[1]; [24],91%
same,Mean tumor volume D 17 SEM,[1]; [24],2681.9 ± 435.7 mm^3
same,Tumor inhibition rate % D 17,[1]; [24],9%
same,Mean tumor volume D 0 SEM,[1]; [24],123.8 ± 1.9 mm^3
same,inhibitory effect on the growth of subcutaneous transplanted tumors,"[1]; PEGylated (PEG) interferon 0.1, 1, 10 mg/kg, SC, 2 times a week, 5 times in total",no significant inhibitory effect
same,half-life,[13],13.98 h
same,% T/C D 21,[2]; [21],81%
same,Mean tumor volume D 21 SEM,[2]; [21],817.1 ± 84.9 mm^3
same,Tumor inhibition rate % D 21,[2]; [21],19%
same,Mean tumor volume D 0 SEM,[2]; [21],112.7 ± 3.9 mm^3
same,% T/C D 21,[2]; [22],68%
same,Mean tumor volume D 21 SEM,[2]; [22],712.4 ± 68.4 mm^3
same,Tumor inhibition rate % D 21,[2]; [22],32%
same,Mean tumor volume D 0 SEM,[2]; [22],117.4 ± 2.8 mm^3
same,% T/C D 21,[2]; [24],45%
same,Mean tumor volume D 21 SEM,[2]; [24],506.1 ± 33.0 mm^3
same,Tumor inhibition rate % D 21,[2]; [24],55%
same,Mean tumor volume D 0 SEM,[2]; [24],112.3 ± 2.3 mm^3
same,Inhibition rate (%)@100 μg/mL,[14],32.5%
same,Inhibition rate (%)@100 μg/mL,[15],32.6%
same,Inhibition rate (%)@100 μg/mL,[16],20.2%
B2,half-life,[7],3.27 ± 1.48 h
same,adverse reactions compared with other ordinary interferons,[17],milder
same,therapeutic effect,[17],certain therapeutic effect
same,adverse reaction,[18],only a short-term low-grade fever
same,effective rate,[18],63.64%
same,remission rate,[18],36.36%
same,specific activity relative to ordinary interferon α2a and 2b,[19],10%
same,half-life,[13],1.84 h
